Laboratory results from patent publication US20260176621A1, “Metabolically Stabilized Carbohydrate Targeting Ligands For Oligonucleotide Conjugates” (Arrowhead Pharmaceuticals, Inc., priority 2023, published 2026).

Experiments:
Assay type in all cases: in vivo, Cynomolgus monkey
PCSK9 [1] = assay: Serum PCSK9 by ELISA (Example 5); conditions: 6.0 mg/kg SQ on Day 1
Method: (§1) On Day 1, three (n=3) male Cynomolgus monkey test animals for each test group were dosed with APOC3-PCSK9 RNAi agents formulated in saline (at 6.0 mg/kg), via subcutaneous (SQ) injection with syringe and needle in the mid-scapular region, at […] dose volume.
(§2) Serum blood (approximately 5.0 mL) was collected on Day −6, Day 8, Day 15, Day 22, Day 29, Day 36, Day 43, Day 50, […], prior to liver biopsy sample collections or dose administration (when applicable), and from any animals found in moribund condition or sacrificed at an unscheduled interval. The collection site was the femoral vein, with a saphenous vein as an alternative collection site.
Serum PCSK9 was quantified via ELISA (R&D Systems, Cat. #DPC900) in accordance with manufacturer's instructions. The relative PCSK9 levels were normalized to pre-dose Day −6.

APOC3 [2] = assay: Serum APOC3 by Roche Cobas assay (Example 5); conditions: for APOC3 (serum): 6.0 mg/kg SQ on Day 1; for inhibition of serum APOC3 relative to Day −6: single 6.0 mg/kg SQ on Day 1
Method: as §1, §2
Serum APOC3 was quantified via Roche Cobas® assay for APOC3 in accordance with manufacturer's instructions.

APOC3 [3] = assay: Liver APOC3 mRNA expression by qPCR of liver biopsies (Example 5); conditions: 6.0 mg/kg SQ on Day 1
Method: as §1
(§3) The liver biopsies and serum collected from the test animals were used for analysis for APOC3 and PCSK9 expression and additional biological parameters. Liver biopsies were collected on Day −6, Day 15, Day 36, Day 50, and Day 64 (post-mortem).
(§4) Liver biopsies were collected as a sedated procedure. Animals were fasted overnight (at least 12 hours but less than 18 hours) prior to each liver biopsy collection. For each animal, collected liver biopsy samples were of approximately 100 mg each (80 to 120 mg).
(§5) The collected liver biopsies were analyzed for APOC3 and PCSK9 expression and additional biological parameters. Liver APOC3 and PCSK9 mRNA expression levels were quantified via qPCR, using cARL1 as endogenous control gene, normalized to Day-6 (pre-dose).

PCSK9 [4] = assay: Liver PCSK9 mRNA expression by qPCR of liver biopsies (Example 5); conditions: 6.0 mg/kg SQ on Day 1
Method: as §1, §3, §4, §5

B1: AC005898: APOC3-PCSK9 dimer RNAi agent conjugate with (NAG52)s ligand, SEQ ID NO 17-19 (nucleic acid)
chain 1: ACAAAAGCAAAACAGGUCC
chain 2: UCACUGAGAAUACUGUCCC
chain 3: GGACCUGUUUUGCUUUUGUGGGACAGUAUUCUCAGUNA
modifications: (NAG52)s ligand conjugate; modified_base 1 OTHER; 5'-cyclopropyl phosphonate-2'-O-methyladenosine; modified_base 1^2 OTHER; phosphorothioate linkage; modified_base 2 OTHER; 2'-fluorocytidine; modified_base 2^3 OTHER; modified_base 3 OTHER; 2'-O-methyladenosine; modified_base 3^4 OTHER; modified_base 4 OTHER; 2'-fluoroadenosine; modified_base 5 OTHER; 5'-cyclopropyl phosphonate-2'-O-methyluridine; phosphor
In the case of B1, the “Rel. Exp. PCSK9 (serum, ELISA, normalized to pre-dose)” value (PCSK9 [1]; Day 1) is reported as 1.004, the “Rel. Exp. PCSK9 (serum, ELISA, normalized to pre-dose)” value (PCSK9 [1]; Day 8) is reported as 0.724 and the “Rel. Exp. PCSK9 (serum, ELISA, normalized to pre-dose)” value (PCSK9 [1]; Day 15) is reported as 0.561. For the same molecule, the “Rel. Exp. PCSK9 (serum, ELISA, normalized to pre-dose)” value (PCSK9 [1]; Day 22) was 0.560, the “Rel. Exp. PCSK9 (serum, ELISA, normalized to pre-dose)” value (PCSK9 [1]; Day 29) was 0.617 and the “Rel. Exp. PCSK9 (serum, ELISA, normalized to pre-dose)” value (PCSK9 [1]; Day 36) was 0.426. The “Rel. Exp. PCSK9 (serum, ELISA, normalized to pre-dose)” value (PCSK9 [1]; Day 43) was 0.790, the “Rel. Exp. PCSK9 (serum, ELISA, normalized to pre-dose)” value (PCSK9 [1]; Day 50) was 0.728 and the “Rel. Exp. PCSK9 (serum, ELISA, normalized to pre-dose)” value (PCSK9 [1]; Day 57) was 0.762. For the same molecule, the “Rel. Exp. PCSK9 (serum, ELISA, normalized to pre-dose)” value (PCSK9 [1]; Day 64) was 0.928, the “Rel. Exp. PCSK9 (serum, ELISA, normalized to pre-dose)” value (PCSK9 [1]; Day −6 (pre-dose)) was 1.140 and the “APOC3 (serum)” value (APOC3 [2]; Day 1) was 6.10 mg/dL. The “APOC3 (serum)” value (APOC3 [2]; Day 8) was 4.61 mg/dL, the “APOC3 (serum)” value (APOC3 [2]; Day 15) was 3.59 mg/dL and the “inhibition of serum APOC3 relative to Day −6” value (APOC3 [2]; Day 22 (nadir)) was “approximately 40%”. The “APOC3 (serum)” value (APOC3 [2]; Day 22) was 3.50 mg/dL, the “APOC3 (serum)” value (APOC3 [2]; Day 29) was 4.16 mg/dL and the “APOC3 (serum)” value (APOC3 [2]; Day 36) was 3.59 mg/dL. For the same molecule, the “APOC3 (serum)” value (APOC3 [2]; Day 43) was 4.07 mg/dL, the “APOC3 (serum)” value (APOC3 [2]; Day 50) was 3.96 mg/dL and the “APOC3 (serum)” value (APOC3 [2]; Day 57) was 4.94 mg/dL. For the same molecule, the “APOC3 (serum)” value (APOC3 [2]; Day 64) was 4.47 mg/dL, the “inhibition of serum APOC3 relative to Day −6” value (APOC3 [2]; Day 64) was “approximately 23%” and the “APOC3 (serum)” value (APOC3 [2]; Day −6 (pre-dose baseline)) was 5.84 mg/dL. The “Rel. Exp. APOC3 (liver mRNA, qPCR, normalized to Day −6)” value (APOC3 [3]; Day 15) was 0.545, the “Rel. Exp. APOC3 (liver mRNA, qPCR, normalized to Day −6)” value (APOC3 [3]; Day 36) was 0.929 and the “Rel. Exp. APOC3 (liver mRNA, qPCR, normalized to Day −6)” value (APOC3 [3]; Day 50) was 0.491. The “Rel. Exp. APOC3 (liver mRNA, qPCR, normalized to Day −6)” value (APOC3 [3]; Day 64) was 0.535, the “Rel. Exp. APOC3 (liver mRNA, qPCR, normalized to Day −6)” value (APOC3 [3]; Day −6 (pre-dose baseline)) was 1.000 and the “Rel. Exp. PCSK9 (liver mRNA, qPCR, normalized to Day −6)” value (PCSK9 [4]; Day 15) was 0.614. The “Rel. Exp. PCSK9 (liver mRNA, qPCR, normalized to Day −6)” value (PCSK9 [4]; Day 36) was 0.520, the “Rel. Exp. PCSK9 (liver mRNA, qPCR, normalized to Day −6)” value (PCSK9 [4]; Day 50) was 0.528 and the “Rel. Exp. PCSK9 (liver mRNA, qPCR, normalized to Day −6)” value (PCSK9 [4]; Day 64) was 0.457. The “Rel. Exp. PCSK9 (liver mRNA, qPCR, normalized to Day −6)” value (PCSK9 [4]; Day −6 (pre-dose baseline)) was 1.000.
